Reference: article PMC12518693, “Potent Fluorescent Probe for Target‐Engagement Studies of Allosteric Pyruvate Kinase Modulators” (Angewandte Chemie (International Ed. in English), 2025)
“And” between values parts separate entries of the source, which are not always exact repeats. Equal entries are not always repeated.

Biological target: the molecule itself
Experiment: native gel or EMSA; recombinant protein incubated with tracer IV (0.15-10 uM) or DMSO at room temperature, native PAGE on 3%-12% bis-tris gel; bands seen by in-gel luminescence (Nluc substrate), colloidal blue staining and western blot; no FBP

B1: PKL-Nluc fusion, nanoluciferase fused to the N-terminus of PKL, recombinant (enzyme)
chain: not shown
notes: Pyruvate kinase, liver isoform (PKL), human; The bands were detected by in-gel luminescence of the Nluc part; source: recombinant, expressed and purified; not shown: Nluc, N-terminal, kept
stoichiometry N: 4 and 2

B2: liver isoform of pyruvate kinase (PKL), wild type, recombinant (enzyme)
chain: not shown
notes: Pyruvate kinase, liver isoform (PKL), human; The same molecule is used for the native PAGE protein and for the crystallised protein; Construct details are probably in the Supporting Information; also called PKLwt; source: recombinant
stoichiometry N: 4
